The data set deals with the molecule itself. Nature of the data set: crystal structure.

B1: YisK with C-terminal histidine tag (enzyme, B. subtilis 168, UniProt O06724 1-301, looked up)
chain: MKFATGELYNRMFVGLIIDDEKIMDLQKAEKKLFELETIPGSLIECIAEGDKFVAHARQLAEWAKKPNDELGSFMYSLSEVKLHAPIPKPSKNIICIGKNYRDHAIEMGSEADIPEHPMVFTKSPVTVTGHGDIVKSHEEVTSQLDYEGELAVVIGKSGTRISKEDAYDHVFGYTIVNDITARDLQKRHKQFFIGKSLDTTCPMGPVLVHKSSIQEPERLKVETRVNGELRQSGSASDMIFSIPELIETLSKGMTLEAGDIIATGTPSGVGKGFTPPKFLRSGDKIDITIDPIGTLSNQIG
Consider B1, for which the binding result is listed as “binds”.

Values taken from paper doi:10.1101/2023.06.26.546597 (bioRxiv, 2023).
